How the values were obtained:
[1] = biological target: the molecule itself; assay: crystal structure; phosphorylated chimeras of 14-3-3σΔC with the STARD1 peptide joined by a GSGSL linker; sitting-drop vapor diffusion; data at 100 K
[2] = biological target: T1, wild-type full-length human 14-3-3γ (human, UniProt P61981 1-247); assay: time-resolved fluorescence anisotropy; 1 µM 22NC, 10 µM pSTARD1, 100 µM 14-3-3γ; 20 mM Tris-HCl pH 7.5, 150 mM NaCl, 5 mM MgCl2; 25 °C; correlation time of the 22NC bound to STARD1; settings: both partners purified
T1 construct: 14-3-3γ, human, wild type, full length; Called untagged in the preparation of the heterodimer; also called untagged 14-3-3γ
T1 sequence (looked up): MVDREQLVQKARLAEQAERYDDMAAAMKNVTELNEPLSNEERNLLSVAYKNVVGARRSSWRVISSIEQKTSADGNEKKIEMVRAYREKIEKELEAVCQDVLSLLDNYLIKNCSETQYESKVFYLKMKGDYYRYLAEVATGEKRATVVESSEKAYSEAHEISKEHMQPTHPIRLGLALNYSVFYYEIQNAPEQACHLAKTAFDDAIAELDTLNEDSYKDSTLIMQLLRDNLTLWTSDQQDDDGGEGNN

[3] = biological target: T2, STARD1_(46-285)-S56A/L59P phosphorylated at Ser57 and Ser195 (human, UniProt P49675 46-285, S56A | L59P, phosphoserine at 57; phosphoserine at 195); assay: SPR
T2 sequence: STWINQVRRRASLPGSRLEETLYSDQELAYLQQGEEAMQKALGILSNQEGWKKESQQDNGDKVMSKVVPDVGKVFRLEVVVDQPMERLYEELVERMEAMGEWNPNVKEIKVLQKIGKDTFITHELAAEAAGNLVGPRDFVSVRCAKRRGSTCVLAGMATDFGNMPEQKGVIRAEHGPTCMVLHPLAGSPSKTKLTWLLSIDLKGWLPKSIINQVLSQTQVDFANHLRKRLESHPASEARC

[4] = biological target: T2, STARD1_(46-285)-S56A/L59P …; assay: SPR; remark: listed apart in the source

B1: chimeric 14-3-3σΔC protein with the STARD1 Ser195 phosphopeptide (other, human)
chain: MERASLIQKAKLAEQAERYEDMAAFMKGAVEKGEELSCEERNLLSVAYKNVVGGQRAAWRVLSSIEQKSNEEGSAAAGPEVREYREKVETELQGVCDTVLGLLDSHLIKEAGDAESRVFYLKMKGDYYRYLAEVATGDDKKRIIDSARSAYQEAMDISKKEMPPTNPIRLGLALNFSVFHYEIANSPEEAISLAKTTFDEAMADLHTLSEDSYKDSTLIMQLLRDNLTLWTGSGSLRRGSTCVLA
modifications: phosphoserine at Ser195 of the STARD1 peptide
notes: 14-3-3σ, human, without the C-terminal tail (14-3-3σΔC core); linker; steroidogenic acute regulatory protein STARD1 (StAR), human, stretch around Ser195; also called protein with fused Ser195 peptide; not shown: His, N-terminal, cleaved
B1: binds [1].

B2: STARD1_(46-285)-S56A/L59P phosphorylated at Ser57 and Ser195 (domain or fragment, human, UniProt P49675 46-285, looked up)
chain: STWINQVRRRASLPGSRLEETLYSDQELAYLQQGEEAMQKALGILSNQEGWKKESQQDNGDKVMSKVVPDVGKVFRLEVVVDQPMERLYEELVERMEAMGEWNPNVKEIKVLQKIGKDTFITHELAAEAAGNLVGPRDFVSVRCAKRRGSTCVLAGMATDFGNMPEQKGVIRAEHGPTCMVLHPLAGSPSKTKLTWLLSIDLKGWLPKSIINQVLSQTQVDFANHLRKRLESHPASEARC
modifications: phosphoserine at 57; phosphoserine at 195
notes: steroidogenic acute regulatory protein STARD1 (StAR), human, residues 46-285 of the 285-residue pre-protein; also called pSTARD1; pSTARD1_(46-285)-S56A/L59P
B2: binds [2].

B3: 14-3-3ε/γ heterodimer (His6-tagged 14-3-3ε with untagged 14-3-3γ) (complex)
chain 1: MDDREDLVYQAKLAEQAERYDEMVESMKKVAGMDVELTVEERNLLSVAYKNVIGARRASWRIISSIEQKEENKGGEDKLKMIREYRQMVETELKLICCDILDVLDKHLIPAANTGESKVFYYKMKGDYHRYLAEFATGNDRKEAAENSLVAYKAASDIAMTELPPTHPIRLGLALNFSVFYYEILNSPDRACRLAKAAFDDAIAELDTLSEESYKDSTLIMQLLRDNLTLWTS
chain 2: MVDREQLVQKARLAEQAERYDDMAAAMKNVTELNEPLSNEERNLLSVAYKNVVGARRSSWRVISSIEQKTSADGNEKKIEMVRAYREKIEKELEAVCQDVLSLLDNYLIKNCSETQYESKVFYLKMKGDYYRYLAEVATGEKRATVVESSEKAYSEAHEISKEHMQPTHPIRLGLALNYSVFYYEIQNAPEQACHLAKTAFDDAIAELDTLNEDSYKDSTLIMQLLRDNLTLWTSDQQDDDGGEGNN
For B3, the koff [3] was 0.0057 s⁻¹ and the Ka [4] was 67000 M⁻¹.

B4: His6-tagged 14-3-3ε (natural protein)
chain: MDDREDLVYQAKLAEQAERYDEMVESMKKVAGMDVELTVEERNLLSVAYKNVIGARRASWRIISSIEQKEENKGGEDKLKMIREYRQMVETELKLICCDILDVLDKHLIPAANTGESKVFYYKMKGDYHRYLAEFATGNDRKEAAENSLVAYKAASDIAMTELPPTHPIRLGLALNFSVFYYEILNSPDRACRLAKAAFDDAIAELDTLSEESYKDSTLIMQLLRDNLTLWTS
In the case of B4, the koff [3] is reported as 0.0058 s⁻¹ and the Ka [4] is reported as 77000 M⁻¹.

Reference: doi:10.1101/2020.04.14.040436, “Molecular basis for the recognition of steroidogenic acute regulatory protein by the 14-3-3 protein family” (bioRxiv, 2020)
